Assays:
[1] = molecular target: T1, human CDH6 (full-length, on cells) (human, UniProt P55285 54-790); assay: competition flow cytometry on 786-O/hCDH6 cells, unlabeled antibody varied, competitor Alexa488-labeled NOV0712 at 5 nM [upper panel]
T1 construct: also called hCDH6; full-length hCDH6
T1 sequence: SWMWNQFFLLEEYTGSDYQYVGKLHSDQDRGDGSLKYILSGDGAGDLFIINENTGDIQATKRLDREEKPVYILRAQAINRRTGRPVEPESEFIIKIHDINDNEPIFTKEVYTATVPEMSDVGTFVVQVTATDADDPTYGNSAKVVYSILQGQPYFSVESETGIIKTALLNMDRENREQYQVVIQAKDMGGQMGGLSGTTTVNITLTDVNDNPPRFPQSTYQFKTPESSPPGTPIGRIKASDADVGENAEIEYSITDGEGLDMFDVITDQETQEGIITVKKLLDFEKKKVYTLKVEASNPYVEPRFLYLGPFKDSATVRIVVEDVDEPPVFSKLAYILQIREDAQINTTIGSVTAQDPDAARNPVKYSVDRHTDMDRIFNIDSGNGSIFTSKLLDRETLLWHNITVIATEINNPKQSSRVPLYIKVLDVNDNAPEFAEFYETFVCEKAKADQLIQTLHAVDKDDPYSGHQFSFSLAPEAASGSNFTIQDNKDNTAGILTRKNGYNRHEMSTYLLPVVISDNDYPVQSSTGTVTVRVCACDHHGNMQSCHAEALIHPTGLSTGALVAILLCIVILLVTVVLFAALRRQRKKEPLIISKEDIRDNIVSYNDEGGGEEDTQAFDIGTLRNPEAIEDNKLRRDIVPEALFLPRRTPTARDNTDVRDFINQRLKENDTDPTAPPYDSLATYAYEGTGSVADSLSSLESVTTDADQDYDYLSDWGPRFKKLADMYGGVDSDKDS
Procedure: The cell suspension of the 786-O/hCDH6 stably expressing cell line produced in 6)-2-2-1 was centrifuged, and the supernatant was then removed. Thereafter, the cells were suspended by the addition of labeled NOV0712 or labeled H01L02 (final concentration: 5 nM) and, further, the addition of each of the 4 humanized hG019 antibodies (clone Nos: H01L02, H02L02, H02L03 and H04L02), which had been prepared in Example 5)-5-3, or the anti-CDH6 antibody NOV0712, which had been prepared in Reference Example 1, or human IgG1 (Calbiochem) as a negative control (final concentration: as shown in the abscissa of FIG. 7). The cells were left standing at 4° C. for 1 hour. Thereafter, the cells were washed twice with PBS supplemented with 5% FBS, followed by detection using a flow cytometer (Canto II; BD Biosciences). The data was analyzed using FlowJo (TreeStar, Inc.). The abscissa depicts the final concentration of the added unlabeled antibody, and the ordinate depicts the amount of the antibody bound based on mean fluorescence intensity. When unlabeled NOV0712 is added to cells supplemented with labeled NOV0712, the amount of the labeled antibody bound is decreased by replacement with the unlabeled antibody in an addition concentration-dependent manner because they compete with each other for binding to the same epitope. […]

[2] = molecular target: T2, EC5-deleted human CDH6 (EC5 deletion mutant, on cells) (human, UniProt P55285 54-790); assay: flow cytometry, 293α cells transiently expressing EC5-deleted hCDH6 (open) against untransfected cells (shaded), APC anti-human IgG F(ab')2
T2 construct: Full-length human CDH6 lacking EC5; Cloned in p3xFLAG-CMV-9; also called EC5-deleted hCDH6
T2 sequence: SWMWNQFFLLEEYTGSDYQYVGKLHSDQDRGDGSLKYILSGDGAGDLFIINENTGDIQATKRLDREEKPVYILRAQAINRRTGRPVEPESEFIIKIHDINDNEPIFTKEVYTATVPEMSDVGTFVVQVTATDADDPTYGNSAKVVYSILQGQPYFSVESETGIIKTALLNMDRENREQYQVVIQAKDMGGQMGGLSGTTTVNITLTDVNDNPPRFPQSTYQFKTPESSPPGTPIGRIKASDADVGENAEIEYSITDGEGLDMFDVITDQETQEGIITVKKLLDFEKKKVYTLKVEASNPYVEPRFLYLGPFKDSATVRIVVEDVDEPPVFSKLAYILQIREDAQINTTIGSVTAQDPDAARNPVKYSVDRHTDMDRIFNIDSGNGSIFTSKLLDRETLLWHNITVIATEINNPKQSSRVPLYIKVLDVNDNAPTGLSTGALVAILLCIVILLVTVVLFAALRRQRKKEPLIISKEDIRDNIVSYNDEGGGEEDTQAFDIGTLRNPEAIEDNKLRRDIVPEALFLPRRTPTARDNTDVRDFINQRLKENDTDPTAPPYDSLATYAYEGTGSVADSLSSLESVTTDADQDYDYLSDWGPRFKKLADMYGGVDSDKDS
Procedure: Thereafter, the cells were suspended by the addition of each of the 4 humanized hG019 antibodies (clone Nos: H01L02, H02L02, H02L03 and H04L02), which had been prepared in Example 5)-5-3, or the anti-CDH6 antibody NOV0712, which had been prepared in Reference Example 1, or human IgG1 (Calbiochem) as a negative control. The cells were left standing at 4° C. for 1 hour. The cells were washed twice with PBS supplemented with 5% FBS, and then suspended by the addition of APC-anti-human IgG goat F(ab′)2 (Jackson ImmunoResearch Laboratories, Inc.) that had been 500-fold diluted with PBS supplemented with 5% FBS. The cells were left standing at 4° C. for 1 hour. The cells were washed twice with PBS supplemented with 5% FBS, followed by detection using a flow cytometer (Canto II; BD Biosciences). The data was analyzed using FlowJo (TreeStar, Inc.). In the histograms of FIGS. 5-1 to 5-6, the abscissa depicts APC fluorescence intensity indicating the amount of the antibody bound, and the ordinate depicts cell count. […] Fluorescence intensity is enhanced when the antibody binds to full-length hCDH6 or each EC domain deletion mutant on the cell surface. The human IgG1 control binds to none of the transfected cells.

B1: anti-CDH6 antibody NOV0712 (antibody, V domains shown)
VH: QVQLLESGGGLVQPGGSLRLSCAASGFTFSSHGMHWVRQAPGKGLEWVSVISGSGSNTGYADSVKGRFTISRDNSKNTLYLQMNSLRAEDTAVYYCARQWGSYAFDSWGQGTLVTVSS
VL: DIQMTQSPSSLSASVGDRVTITCRASQSISSYLNWYQQKPGKAPKLLIYAVSTLQSGVPSRFSGSGSGTDFTLTISSLQPEDFATYYCQQSGTFPPTTFGQGTKVEIKR
IC50 (read off the curve) [1]: ~4 nM | binding result [2]: no binding (tested: not given)

From patent publication US20220016257A1 (Daiichi Sankyo, published 2022)
